Results from patent US7537932.

Target: mouse Flt3 receptor on Baflt cells (Ba/F3 cells stably transfected with Flt3 cDNA) (mouse) (UniProt Q00342)
Test: cell-based or functional assay

Chain of UniProt Q00342 (Q00342 28-1000): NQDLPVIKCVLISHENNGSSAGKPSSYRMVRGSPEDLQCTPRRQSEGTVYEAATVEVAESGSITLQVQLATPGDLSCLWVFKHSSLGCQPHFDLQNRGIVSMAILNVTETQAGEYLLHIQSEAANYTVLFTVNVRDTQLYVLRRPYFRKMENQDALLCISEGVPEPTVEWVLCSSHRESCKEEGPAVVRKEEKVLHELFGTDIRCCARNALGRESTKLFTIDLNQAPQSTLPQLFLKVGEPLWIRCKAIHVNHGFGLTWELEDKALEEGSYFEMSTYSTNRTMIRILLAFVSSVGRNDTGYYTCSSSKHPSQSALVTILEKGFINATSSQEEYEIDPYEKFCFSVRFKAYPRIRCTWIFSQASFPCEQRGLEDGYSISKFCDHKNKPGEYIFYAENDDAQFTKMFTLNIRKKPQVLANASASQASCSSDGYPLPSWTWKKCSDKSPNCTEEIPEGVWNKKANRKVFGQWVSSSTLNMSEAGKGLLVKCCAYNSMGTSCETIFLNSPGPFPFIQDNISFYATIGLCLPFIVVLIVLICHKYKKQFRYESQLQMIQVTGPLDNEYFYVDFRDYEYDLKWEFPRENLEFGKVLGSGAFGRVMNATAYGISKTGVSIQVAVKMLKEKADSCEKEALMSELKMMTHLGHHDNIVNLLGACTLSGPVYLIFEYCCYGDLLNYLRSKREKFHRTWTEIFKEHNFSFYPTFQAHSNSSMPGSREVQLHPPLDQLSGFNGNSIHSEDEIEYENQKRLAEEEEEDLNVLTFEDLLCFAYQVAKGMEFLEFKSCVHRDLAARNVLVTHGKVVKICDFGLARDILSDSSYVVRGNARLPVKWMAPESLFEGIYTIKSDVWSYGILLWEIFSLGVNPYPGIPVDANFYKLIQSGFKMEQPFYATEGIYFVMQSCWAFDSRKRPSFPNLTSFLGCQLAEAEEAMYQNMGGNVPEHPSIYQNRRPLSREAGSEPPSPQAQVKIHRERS

specific activity in the bioassay (MTT assay, Baflt minus Ba/F3): 3e+06 units/mg
Substance: purified native mouse Flt3 ligand (naturally occurring soluble form from TA4 thymic stromal cell conditioned medium) (from UniProt P49772 27-189)
specific activity on the Baf assay (MTT survival assay, Baflt minus Baf signal) (Units per milligram): 1e+07
